Consider two substances from PMC9674292.

Test [1] deals with EGFP-VopL (V. parahaemolyticus). The experiment in a line: stepwise photobleaching of single-molecule speckles (TIRF, live cells); XTC cells with very low levels of EGFP-VopF or EGFP-VopL; speckles arrested with 10 nM latrunculin A; continuous 488-nm illumination; distribution of bleaching steps compared with a binomial model (probability of EGFP being fluorescent 0.75).
The target in test [2] is EGFP-VopF (V. cholerae). The test is described as above.

Usually stoichiometry N stands for a count of units in the complex or per binding partner. As for EGFP-VopL (natural protein), in test [1], the stoichiometry N was found to be 2. EGFP-VopF (natural protein) registered a stoichiometry N in test [2] of 2.
